Reference: US20220073563A1 (ZHEJIANG DOER BIOLOGICS, published 2022)

Legend:
VEGF [1] = target: T1, VEGF (UniProt P15692-4 27-191, limits assumed); assay: BLI (Octet-QK), biotin-labeled VEGF on SA probe; repeat 3
T1 construct: In the BLI assay the VEGF was biotin-labeled (Sulfo-NHS biotin, molar ratio 2:1) and loaded on an SA probe
Text: (§1) The binding affinity of the fusion protein is detected using BLI(Bio-layer inteferometry, ForteBio). […] Biotin not involved in labeling is removed by dialysis. […] The buffer used in the experiment is PBS (containing 0.1% Tween-20). […] Based on the program settings, the fusion protein is bound, and then dissociated in PBST solution, to obtain the experimental curve. According to the result analysis software of Octet-QK, local full is used to fit the curve of the experimental results, to calculate kon, kdis and Kd.

VEGF [2] = target: T1, VEGF; assay: BLI (Octet-QK), biotin-labeled VEGF on SA probe; repeat 1
Text: as §1

VEGF [3] = target: T1, VEGF; assay: BLI (Octet-QK), biotin-labeled VEGF on SA probe; repeat 2
Text: as §1

VEGF [4] = target: T1, VEGF; assay: VEGF receptor competitive inhibition ELISA: sample in 3-fold dilutions premixed with 1 µg/mL VEGF, added to coated VEGF Receptor 2/KDR, bound VEGF detected with anti-VEGF antibody
Experimental: Blocking the ELISA plate with 1% BSA/TBS and placing at 37° C. for 2 h. […] The KDR-coated ELISA plate is washed twice and pat-dried. Then, the gradiently diluted mixture samples are successively transferred to the ELISA plate and placed at 37° C. for 1 h, then the plate is washed 5 times. […] The plate is placed at 37° C. for 1 h and washed 5 times. […] The plate is placed at 37° C. for 1 h and washed for 6 times. After the reaction, adding the color developing solution, and developing the color at 37° C. for 15 min. Adding the stop buffer to terminate the color reaction. Reading the OD450 value on the microplate reader.

VEGF [5] = target: T1, VEGF; assay: BLI (Octet-QK), biotin-labeled VEGF on SA probe; average value of 3 repeats
Text: as §1

T1 sequence (P15692 other isoform, or with tags, fused parts or gaps limits assumed): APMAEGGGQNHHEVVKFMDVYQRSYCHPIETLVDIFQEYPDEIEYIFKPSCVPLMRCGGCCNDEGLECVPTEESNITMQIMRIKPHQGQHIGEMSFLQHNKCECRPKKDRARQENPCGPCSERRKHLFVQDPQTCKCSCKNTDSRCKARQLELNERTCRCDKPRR

Kd (VEGF [1]): 0.59 nM
Kd (VEGF [2]): 0.55 nM
Kd (VEGF [3]): 0.47 nM
IC50 (VEGF [4]): 0.64 nM
Kd (VEGF [5]): 0.54 nM
B1: ankyrin repeat protein binding to VEGF (designed binder)
chain: GSDLDKKLLEAARAGQDDEVRILMANGADVNARDSTGWTPLHLAAPWGHPEIVEVLLKNGADVNAADFQGWTPLHLAAAVGHLEIVEVLLKYGADVNAQDKFGKTAFDISIDNGNEDLAEILQKAA
notes: Unfused ARVEGF used as comparator; also called ARVEGF
